From publication doi:10.1101/2025.11.16.688685

Assays:
[1] = biological target: hRNMT WT;RAM 1-90 (Homo sapiens;Homo sapiens?, UniProt O43148;Q9BTL3 1-476;1-90, |); assay: EMSA
[2] = biological target: T1, hRNMT 120-476 (Homo sapiens, UniProt O43148 120-476); assay: EMSA
[3] = biological target: T2, hRNMT 1-185 (Homo sapiens, UniProt O43148 1-185); assay: EMSA
[4] = biological target: T3, hRNMT WT (Homo sapiens, UniProt O43148 1-476); assay: EMSA
[5] = biological target: T2, hRNMT 1-185; assay: pull-down
[6] = biological target: T1, hRNMT 120-476; assay: pull-down
[7] = biological target: T3, hRNMT WT; assay: pull-down

Measured: binding result

T1 sequence (O43148 120-476): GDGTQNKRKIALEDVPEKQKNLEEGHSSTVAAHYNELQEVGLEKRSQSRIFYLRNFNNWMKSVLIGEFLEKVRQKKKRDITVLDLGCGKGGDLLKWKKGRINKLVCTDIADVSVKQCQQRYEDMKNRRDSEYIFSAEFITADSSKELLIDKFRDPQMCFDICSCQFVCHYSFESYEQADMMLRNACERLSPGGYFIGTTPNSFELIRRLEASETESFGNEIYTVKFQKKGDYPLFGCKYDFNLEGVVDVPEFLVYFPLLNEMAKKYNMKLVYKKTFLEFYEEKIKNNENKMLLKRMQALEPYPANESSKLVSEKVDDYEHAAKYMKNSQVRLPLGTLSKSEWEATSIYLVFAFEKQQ
T3 sequence (O43148 whole entry): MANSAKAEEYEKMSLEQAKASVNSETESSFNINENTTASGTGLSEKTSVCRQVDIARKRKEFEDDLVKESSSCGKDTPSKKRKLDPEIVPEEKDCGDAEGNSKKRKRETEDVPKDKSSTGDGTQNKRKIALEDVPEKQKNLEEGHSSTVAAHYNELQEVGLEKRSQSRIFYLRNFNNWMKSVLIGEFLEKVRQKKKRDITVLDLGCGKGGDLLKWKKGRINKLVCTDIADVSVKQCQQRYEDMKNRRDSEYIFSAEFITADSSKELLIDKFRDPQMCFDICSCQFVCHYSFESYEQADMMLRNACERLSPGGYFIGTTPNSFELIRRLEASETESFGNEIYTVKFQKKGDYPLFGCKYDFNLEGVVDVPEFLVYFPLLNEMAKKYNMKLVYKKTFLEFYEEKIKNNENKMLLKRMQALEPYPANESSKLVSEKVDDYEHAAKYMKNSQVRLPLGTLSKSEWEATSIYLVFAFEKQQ
Sequence of hRNMT WT;RAM 1-90 (O43148 whole entry, chain 1 of 2): as the sequence (O43148 whole entry) above
Sequence of hRNMT WT;RAM 1-90 (Q9BTL3 1-90, chain 2 of 2): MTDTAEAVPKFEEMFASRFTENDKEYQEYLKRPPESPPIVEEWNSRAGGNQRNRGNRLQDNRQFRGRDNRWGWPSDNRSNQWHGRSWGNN
T2 sequence (O43148 1-185): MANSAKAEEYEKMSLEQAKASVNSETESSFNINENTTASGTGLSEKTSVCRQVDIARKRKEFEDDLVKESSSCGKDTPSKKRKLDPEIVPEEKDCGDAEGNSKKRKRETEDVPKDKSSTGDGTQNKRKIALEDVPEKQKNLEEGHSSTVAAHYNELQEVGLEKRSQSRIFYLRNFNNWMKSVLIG

B1: pGEM RNA (ssRNA)
RNA: GGGCGAAUUGGGCCCGACGUCGCAUGCUCCCGGCCGCCAUGGCGGCCGCGGGAA
binds: [1] | [2]

B2: pGEM rG4 RNA (structured_RNA)
RNA: GGGCGAAUUGGGCCCGACGUCGCAUGUGUGGGAGGGGGCGGGUGUGGGUGCGAA
binds: [1] | [2] | [3] | [4]

UGUGGGAGGGGCGGGUGUGGGUGC (structured_RNA) [NRAS rG4]
binds: [5] | [6] | [7]
